Here are results for 77 sequences from the supplement of paper PMC7877785.

± gives the uncertainty stated by the source.

The series in a line: self-splicing fitness, log relative to wild type (ln ratio); higher = more splicing; Tetrahymena group I intron in knt gene, E. coli kanamycin selection, DiMSum; sequences stand for … in CUCUCU…GGAGGGAAAAGUUAUCAGGCAUGCACCUGGUAGCUAGUCUUUAAACCAAUAGAUUGCAUCGGUUUAAAAGGCAAGACCGUCAAAUUGCGGGAAAGGGGUCAACAGCCGUUCAGUACCAAGUCUCAGGGGAAACUUUGAGAUGGCCUUGCAAAGGGUAUGGUAAUAAGCUGACGGACAUGGUCCUAACCACGCAGCCAAGUCCUAAGUCAACAGAUCUUCUGUUGAUAUGGAUGCAGUUCACAGACUAAAUGUCGGUCGGGGAAGAUGUAUUCUUCUCAUAAGAUAUAGUCGGACCUCUCCUUAAUGGGAGCUAGCGGAUGAAGUGAUGCAACACUGGAGCCGCUGGGAACUAAUUUGUAUGCGAAAGUAUAUUGAUUAGUUUUGGAGUACUCGUGGUCG
In short, it runs like this:
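DiMSum derived fitness as the error-weighted combination of fold changes across replicates, kanamycin versus no kanamycin, normalised to wild type. E. coli BL21(DE3) held the library, which randomised all eight P1ex-region intron nucleotides within the knt kanamycin-resistance gene on pET-22b(+). Six replicate transformations grew overnight at 37°C or 30°C on LB agar with or without 25 μg/mL kanamycin, also containing 100 μg/mL carbenicillin, 50 μM IPTG and 0.2% rhamnose, and pooled colonies were amplicon-sequenced on an Illumina HiSeq 2500.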

For the sequence CUUUAGCAAUAUUACGGCUG, the “self-splicing fitness (ln)” value is, setting by setting: (30 °C) -1.48 ± 0.14; (37 °C) -0.483 ± 0.14.
Regarding CUUUAGCAAUAUUACGGGAA, the “self-splicing fitness (ln)” value was -2.28 ± 0.22 (30 °C) and -1.58 ± 0.3 (37 °C).
In the same order, the values of CUUUAGCAAUAUUACGGGCG are -0.935 ± 0.12 and 0.00294 ± 0.15.
As for CUUUAGCAAUAUUACGGGGA, the “self-splicing fitness (ln)” value was -2.88 ± 0.19 (30 °C) and -1.38 ± 0.17 (37 °C).
On the same counts, the results for CUUUAGCAAUAUUACGUACU are -2.22 ± 0.23 and -2.82 ± 0.34.
CUUUAGCAAUAUUACGUGCU: the “self-splicing fitness (ln)” value (37 °C) was -2.59 ± 0.41.
In the case of CUUUAGCAAUAUUACGUUGG, the “self-splicing fitness (ln)” value by setting is: (30 °C) -3.1 ± 0.24; (37 °C) -1.86 ± 0.27.
GAAAAGCAAUAUUACGAAAA: the “self-splicing fitness (ln)” value (30 °C) was -2.25 ± 0.22 and the “self-splicing fitness (ln)” value (37 °C) was -2.42 ± 0.17.
In the same order, the values of GAAAAGCAAUAUUACGAACA are -0.893 ± 0.1 and 0.0828 ± 0.12.
On the same counts, the results for GAAAAGCAAUAUUACGAACC are -0.664 ± 0.14 and -0.705 ± 0.18.
On the same counts, the results for GAAAAGCAAUAUUACGACAA are -0.627 ± 0.084 and -0.496 ± 0.096.
Regarding GAAAAGCAAUAUUACGAGCC, the “self-splicing fitness (ln)” value (30 °C) was -1.38 ± 0.19 and the “self-splicing fitness (ln)” value (37 °C) is -0.409 ± 0.18.
For the sequence GAAAAGCAAUAUUACGAGCG, the “self-splicing fitness (ln)” value is -0.699 ± 0.14 (30 °C) and -0.579 ± 0.15 (37 °C).
In the same order, the values of GAAAAGCAAUAUUACGAGGA are -2.03 ± 0.15 and -1.78 ± 0.16.
For the sequence GAAAAGCAAUAUUACGAGGG, the “self-splicing fitness (ln)” value (37 °C) was -1.77 ± 0.25.
As for GAAAAGCAAUAUUACGAGUG, the “self-splicing fitness (ln)” value was -1.08 ± 0.073 (30 °C) and -0.813 ± 0.094 (37 °C).
On the same counts, the results for GAAAAGCAAUAUUACGAUCA are -0.39 ± 0.067 and -0.234 ± 0.072.
In the same order, the values of GAAAAGCAAUAUUACGAUGU are -1.07 ± 0.084 and -0.404 ± 0.096.
As for GAAAAGCAAUAUUACGCAUC, the “self-splicing fitness (ln)” value is -3.17 ± 0.17 (30 °C) and -2.78 ± 0.18 (37 °C).
In the same order, the values of GAAAAGCAAUAUUACGCCAA are -2.24 ± 0.12 and -1.36 ± 0.12.
In the case of GAAAAGCAAUAUUACGCCUU, the “self-splicing fitness (ln)” value by setting is: (30 °C) -0.813 ± 0.11; (37 °C) -0.558 ± 0.13.
On the same counts, the results for GAAAAGCAAUAUUACGCUAA are -2.24 ± 0.16 and -1.1 ± 0.13.
In the case of GAAAAGCAAUAUUACGGCAU, the “self-splicing fitness (ln)” value is, setting by setting: (30 °C) -0.258 ± 0.066; (37 °C) 0.329 ± 0.083.
GAAAAGCAAUAUUACGGUUU: the “self-splicing fitness (ln)” value runs as follows: (30 °C) -0.79 ± 0.057; (37 °C) -0.332 ± 0.076.
On the same counts, the results for GAAAAGCAAUAUUACGUAAU are -1.78 ± 0.066 and -1.47 ± 0.087.
In the same order, the values of GAAAAGCAAUAUUACGUACU are -0.864 ± 0.069 and -0.0522 ± 0.1.
On the same counts, the results for GAAAAGCAAUAUUACGUCCU are -0.216 ± 0.089 and 0.514 ± 0.12.
Take GAAAAGCAAUAUUACGUGCC: the “self-splicing fitness (ln)” value was -1.69 ± 0.19 (30 °C) and -0.25 ± 0.22 (37 °C).
In the case of GAAAAGCAAUAUUACGUGCG, the “self-splicing fitness (ln)” value reads like this: (30 °C) -1.44 ± 0.095; (37 °C) 0.264 ± 0.12.
Take GAAAAGCAAUAUUACGUUAU: the “self-splicing fitness (ln)” value was -1.67 ± 0.07 (30 °C) and -0.868 ± 0.088 (37 °C).
For GAAAAGCAAUAUUACGUUGU, the “self-splicing fitness (ln)” value runs as follows: (30 °C) -4.51 ± 0.2; (37 °C) -2.22 ± 0.12.
With GAACAGCAAUAUUACGAAAA, the “self-splicing fitness (ln)” value is, setting by setting: (30 °C) -1.77 ± 0.14; (37 °C) -1.65 ± 0.12.
Take GAACAGCAAUAUUACGAAGG: the “self-splicing fitness (ln)” value was -2.59 ± 0.17 (30 °C) and -3.26 ± 0.28 (37 °C).
In the same order, the values of GAACAGCAAUAUUACGAAUG are -2.42 ± 0.092 and -1.52 ± 0.096.
In the same order, the values of GAACAGCAAUAUUACGACCG are -1.25 ± 0.14 and -0.315 ± 0.17.
On the same counts, the results for GAACAGCAAUAUUACGACGC are -0.0786 ± 0.067 and 0.151 ± 0.088.
GAACAGCAAUAUUACGAGAA: the “self-splicing fitness (ln)” value is -3.45 ± 0.25 (30 °C) and -1.44 ± 0.17 (37 °C).
In the case of GAACAGCAAUAUUACGAUCG, the “self-splicing fitness (ln)” value is -0.614 ± 0.085 (30 °C) and -0.564 ± 0.11 (37 °C).
In the same order, the values of GAACAGCAAUAUUACGAUCU are -1.33 ± 0.055 and -0.287 ± 0.078.
In the same order, the values of GAACAGCAAUAUUACGAUUU are -0.342 ± 0.05 and -0.476 ± 0.064.
On the same counts, the results for GAACAGCAAUAUUACGCAAG are -3.31 ± 0.23 and -1.41 ± 0.17.
Regarding GAACAGCAAUAUUACGCCAA, the “self-splicing fitness (ln)” value by setting is: (30 °C) -1.94 ± 0.42; (37 °C) -2.06 ± 0.32.
On to GAACAGCAAUAUUACGCUAG, for which the “self-splicing fitness (ln)” value reads like this: (30 °C) -1.69 ± 0.098; (37 °C) -0.109 ± 0.092.
In the same order, the values of GAACAGCAAUAUUACGCUUA are -1.2 ± 0.084 and -0.826 ± 0.099.
On the same counts, the results for GAACAGCAAUAUUACGGAGG are -3.02 ± 0.14 and -2.54 ± 0.2.
On the same counts, the results for GAACAGCAAUAUUACGGCAG are -2.31 ± 0.12 and -3.02 ± 0.24.
Regarding GAACAGCAAUAUUACGGCUA, the “self-splicing fitness (ln)” value (30 °C) was -0.474 ± 0.077 and the “self-splicing fitness (ln)” value (37 °C) was -0.117 ± 0.084.
On to GAACAGCAAUAUUACGGGGG, for which the “self-splicing fitness (ln)” value is -2.08 ± 0.15 (30 °C) and -2.42 ± 0.2 (37 °C).
On the same counts, the results for GAACAGCAAUAUUACGGGUU are -2.91 ± 0.1 and -2.04 ± 0.11.
On to GAACAGCAAUAUUACGUAGC, for which the “self-splicing fitness (ln)” value is -0.75 ± 0.074 (30 °C) and -0.22 ± 0.1 (37 °C).
For GAACAGCAAUAUUACGUAUA, the “self-splicing fitness (ln)” value (30 °C) is -0.835 ± 0.083 and the “self-splicing fitness (ln)” value (37 °C) is -0.324 ± 0.1.
In the same order, the values of GAACAGCAAUAUUACGUAUG are -1.02 ± 0.091 and -0.888 ± 0.12.
For GAACAGCAAUAUUACGUCAG, the “self-splicing fitness (ln)” value is -2.51 ± 0.21 (30 °C) and -3.2 ± 0.36 (37 °C).
In the case of GAACAGCAAUAUUACGUGCU, the “self-splicing fitness (ln)” value (30 °C) was -2.89 ± 0.14 and the “self-splicing fitness (ln)” value (37 °C) was -1.88 ± 0.14.
On the same counts, the results for GAACAGCAAUAUUACGUUAC are -2.53 ± 0.14 and -1.32 ± 0.16.
In the same order, the values of GAAGAGCAAUAUUACGACAU are -2.22 ± 0.017 and -1.35 ± 0.035.
On the same counts, the results for GAAGAGCAAUAUUACGACGC are -1.55 ± 0.15 and 0.291 ± 0.16.
As for GAAGAGCAAUAUUACGAGUG, the “self-splicing fitness (ln)” value is, setting by setting: (30 °C) -4.54 ± 0.41; (37 °C) -2.81 ± 0.24.
As to GAAGAGCAAUAUUACGCAAA, where the note is “37 °C”, the “self-splicing fitness (ln)” value is -2.69 ± 0.33.
Turning to GAAGAGCAAUAUUACGCAAG, the “self-splicing fitness (ln)” value is -3.6 ± 0.39 (30 °C) and -2.68 ± 0.36 (37 °C).
On the same counts, the results for GAAGAGCAAUAUUACGCAAU are -3.87 ± 0.2 and -1.65 ± 0.13.
Regarding GAAGAGCAAUAUUACGCACC, the “self-splicing fitness (ln)” value (30 °C) was -0.341 ± 0.2 and the “self-splicing fitness (ln)” value (37 °C) was found to be 0.037 ± 0.22.
In the same order, the values of GAAGAGCAAUAUUACGCAGA are -2.65 ± 0.32 and -2.73 ± 0.41.
Take GAAGAGCAAUAUUACGCCAA: for the setting “37 °C”, the “self-splicing fitness (ln)” value was -2.54 ± 0.45.
GAAGAGCAAUAUUACGCCCG: the “self-splicing fitness (ln)” value (30 °C) is -1.59 ± 0.47.
On to GAAGAGCAAUAUUACGCCUA, for which the “self-splicing fitness (ln)” value reads like this: (30 °C) -2.55 ± 0.34; (37 °C) -1.3 ± 0.25.
On the same counts, the results for GAAGAGCAAUAUUACGCGAA are -3.32 ± 0.23 and -2.94 ± 0.38.
On the same counts, the results for GAAGAGCAAUAUUACGCUAG are -4.24 ± 0.37 and -1.13 ± 0.21.
For GAAGAGCAAUAUUACGGAGC, the “self-splicing fitness (ln)” value (37 °C) is -1.64 ± 0.37.
As to GAAGAGCAAUAUUACGGAUU, the “self-splicing fitness (ln)” value (30 °C) is -2.29 ± 0.15 and the “self-splicing fitness (ln)” value (37 °C) is -1.79 ± 0.19.
GAAGAGCAAUAUUACGGCAG: the “self-splicing fitness (ln)” value runs as follows: (30 °C) -4.54 ± 0.36; (37 °C) -1.97 ± 0.23.
Regarding GAAGAGCAAUAUUACGGCUA, the “self-splicing fitness (ln)” value was -1.5 ± 0.15 (30 °C) and -0.512 ± 0.15 (37 °C).
In the same order, the values of GAAGAGCAAUAUUACGGCUU are -0.88 ± 0.14 and 0.407 ± 0.13.
On to GAAGAGCAAUAUUACGGGAC, for which the “self-splicing fitness (ln)” value is -3.76 ± 0.25 (30 °C) and -2.3 ± 0.24 (37 °C).
In the same order, the values of GAAGAGCAAUAUUACGUACG are -3.52 ± 0.25 and -2.15 ± 0.22.
On the same counts, the results for GAAGAGCAAUAUUACGUAGA are -4.54 ± 0.42 and -2.21 ± 0.25.
As to GAAGAGCAAUAUUACGUCCU, the “self-splicing fitness (ln)” value runs as follows: (30 °C) -2.59 ± 0.48; (37 °C) -0.861 ± 0.29.
